Measured values published in patent US20240174744A1 (SCIRHOM, published 2024).

T1: hiR1-FL-WT-T7 (human iRhom1 full length wild type C-terminally tagged with 3 consecutive copies of the T7 … (human, UniProt Q96CC6 1-855))
T1 construct: also called human iRhom1 variant expressed by MEF-DKO-hiR1-FL-WT-T7 cells
T1 sequence: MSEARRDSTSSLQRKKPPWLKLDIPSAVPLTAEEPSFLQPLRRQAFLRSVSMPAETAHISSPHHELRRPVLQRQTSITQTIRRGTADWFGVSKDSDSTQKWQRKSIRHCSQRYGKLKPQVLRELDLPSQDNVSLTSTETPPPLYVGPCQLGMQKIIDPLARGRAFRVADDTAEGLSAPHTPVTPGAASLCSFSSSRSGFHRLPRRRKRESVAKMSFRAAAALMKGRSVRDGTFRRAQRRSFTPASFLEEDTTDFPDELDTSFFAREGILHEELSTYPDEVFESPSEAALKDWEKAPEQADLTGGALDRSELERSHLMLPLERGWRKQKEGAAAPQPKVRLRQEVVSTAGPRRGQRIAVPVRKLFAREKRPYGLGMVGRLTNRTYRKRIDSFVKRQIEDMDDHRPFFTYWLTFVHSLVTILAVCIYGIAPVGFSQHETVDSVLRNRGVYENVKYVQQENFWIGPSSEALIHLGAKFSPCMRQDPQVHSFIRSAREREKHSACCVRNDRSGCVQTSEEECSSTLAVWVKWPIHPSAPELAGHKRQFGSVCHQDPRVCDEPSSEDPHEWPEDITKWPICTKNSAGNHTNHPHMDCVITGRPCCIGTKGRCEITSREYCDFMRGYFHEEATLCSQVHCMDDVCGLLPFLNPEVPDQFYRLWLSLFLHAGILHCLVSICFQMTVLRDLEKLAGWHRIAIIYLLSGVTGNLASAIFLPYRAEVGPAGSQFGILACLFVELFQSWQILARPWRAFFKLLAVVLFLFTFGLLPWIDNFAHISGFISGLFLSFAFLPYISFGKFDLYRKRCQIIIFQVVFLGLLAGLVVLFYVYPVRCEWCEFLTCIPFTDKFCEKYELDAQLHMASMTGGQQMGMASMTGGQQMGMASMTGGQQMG


molecular target: T1, hiR1-FL-WT-T7 (human iRhom1 full length …); assay: FACS on cells of the row human iR1 wild type, vs human iR2 wild type = 100%

Row | Binder | grade of loss of binding vs wild type
1 | antibody 34 (antibody, V domains shown, Mouse IgG, kappa light chain; also called clone #34; m34) VH: QVTLKESGPGILQPSQTLSLTCSFSGFSLSTFSLGVGWIRQSSGKGLEWLAHIWWDDEKYYNPALKSRLTISKDTSKNQVFLKIANVDAADTATYYCARAYYSKSYYALDYWGQGTSVTVSS VL: DIQMTQSPSSLSASLGERVSLTCRASQEISGYLSWLQQKPDGTIKRLIYAASTLDSGVPKRFSGSRSGSDYSLAISSLESEDFADYYCLQYANFPFTFGSGTKLEIK | 3 grade (3 => 95% loss of binding vs wild type)
2 | antibody 50 (antibody, V domains shown, Mouse IgG, kappa light chain; also called clone #50; purified antibody 50) VH: QVQLQQSGAELVRPGASVKVSCKASGYAFSNYLIEWVKQRPGQGLEWIGVINPGSGFTKYNEKFKGKATLTADKSSSTAYMQLSSLTSEDSAVYFCARGLYRAMDYWGQGTSVTVSS VL: DIQMTQSPASQSASLGESVTITCLASQTIGTWLAWYQQKPGKSPQLLIYAAASLADGVPSRFSGGGSGTKFSFKISSLQAEDFVNYYCQQIYSTPYTFGGGTKLEIK | 3 grade (3 => 95% loss of binding vs wild type)
3 | antibody 43 (antibody, V domains shown, Mouse IgG, kappa light chain; also called clone #43) VH: QVALKESGPGILQPSQTLSLTCSFSGFSLSTFGMGVGWIRQSSGKGLEWLANIWWDDDKYYNPALKSRLTISKDASKNQAFLKIANVDTADTATYYCARIGNYGSNYWYFDVWGTGTTVTVSS VL: QIVLTQSPAIMSASPGERVTMTCSANSRISYMYWYQQKPGSSPRLLIYDTSNLASGVPVRFSGSGSGTSYSLTISRMEAEDAATYNCQQWSSYPLTFGAGTKLELK | 3 grade (3 => 95% loss of binding vs wild type)
4 | antibody 5 (antibody, V domains shown, Mouse IgG, kappa light chain; also called clone #5; purified antibody 5) VH: QVTLKESGPGILQPSQTLSLTCSFSGFSLSTFGMGVGWIRQPSGKGLEWLAHIWWDDEKYYNSALKSRLTISKATSKNQAFLKIANVDTADTATYYCARISNYGSNYWYFNVWGTGTTVTVSS VL: QVVLTQSPALMSASPGEKVTMTCSAGSSVSCMYWYQQKPGSSPRVLIYDTSNLASGVPARFTGSGSGTSYSLTISRMEAEDAASYYCQQWNSYPLTFGAGTKLELK | 3 grade (3 => 95% loss of binding vs wild type)
5 | antibody 44 (antibody, V domains shown, Mouse IgG, kappa light chain; also called clone #44; m44) VH: QVTLKESGPGILQPSQTLSLTCSFSGFSLSTFGMGVGWIRQPSEKGLEWLAHIWWDDDKYYNPALKSRLTISKDTSKNQIFLKITNVDTAETATYYCSRIGNYGSNYWYFDVWGTGTTVTVSS VL: QIVLTQSPAVMSASPGEKVTMTCTASSSVYYMYWYQQTPGSSPRLLIYDTSNLASGVPVRFSGSGSGTSYSLTISRMEAEDAATYYCQQWNTYPLTFGAGTKLELK | 3 grade (3 => 95% loss of binding vs wild type)
6 | antibody 42 (antibody, V domains shown, Mouse IgG, kappa light chain; also called clone #42; m42) VH: QVTLKESGPGILQPSQTLSLTCSLSGFSLSTFGRGVGWIRQPSGKGLEWLAHIWWDDEKYYNPALKSRLTISKDTSKNQVFLRIANVDTADTATYYCARIQNYGSNYWYFDVWGTGTTVTVSS VL: LIVLTQSPAIMSASPGEKVTMTCGATSRISYMFWYQQKPGSSPRVLIYDTSNLASGVPVRFSGSGSGTSYSLTISRVEAEDVATYYCQQWNSYPLTFGAGTKLELK | 3 grade (3 => 95% loss of binding vs wild type)
7 | antibody 22 (antibody, V domains shown, Mouse IgG, kappa light chain; also called clone #22; m22) VH: QVTLKESGPGILQPSQTLSLTCSFSGFSLSTFGMGVGWIRQPSGKGLEWLAHIWWDDEKYYNSALKSRLTISKATSKNQVFLKIANVDTADTATYYCARISNYGSNYWYFNVWGTGTTVTVSS VL: QVVLTQSPALMSASPGEKVTMTCSAGSSVSYMYWYQQKPGSSPRVLIYDTSNLASGVPARFTGSGSGTSYSLTISRMEAEDAATYYCQQWNSYPLTFGAGTKLELK | 3 grade (3 => 95% loss of binding vs wild type)
8 | antibody 16 (antibody, V domains shown, Mouse IgG, kappa light chain; also called clone #16; m16) VH: QVTLKESGPGILQPSQTLSLTCSFSGFSLSTFALGVGWIRQPSGRGLEWLAHIWWDDDKYYNPALKSRLTISKDTSKNHVFLKIANVDTADTATYYCARITTYYYGMDYWGQGTSVTVSS VL: DIVLSQSPATLSVTPGDSVSLFCRASQSIGNHLHWYQQESHASPRLLIKYASQSISGIPSRFSGSGSGTDFTLSINSVETEDFGMYFCQQSYNWPLTFGAGTKLELK | 3 grade (3 => 95% loss of binding vs wild type)
9 | antibody 3 (antibody, V domains shown, Mouse IgG, kappa light chain; also called clone #3; purified antibody 3) VH: QVTLKESGPGILQPSQTLSLTCSFSGFSLTTFAMGIGWVRQPSGKGLEWLAHIWWDGEKYNNPVLKSRLTISKDTSKNQVFLRIANVDTPDTATYYCARISSIYYIIDNWGQGTSVTVSS VL: DIVLTQSPATLSVTPGHSVSLSCRASQSISNNLHWYQKKSHESPRLLIKYVSQSISGIPSRFSGSGSGTDFTLSINSVETEDFGMYFCQQSYNWPLTFGAGTKLELK | 3 grade (3 => 95% loss of binding vs wild type)
